According to IntAct's records for PubMed 34606829:

B1: ALK tyrosine kinase receptor (Homo sapiens), Q9UM73 (parent)
chain: MGAIGLLWLLPLLLSTAAVGSGMGTGQRAGSPAAGPPLQPREPLSYSRLQRKSLAVDFVVPSLFRVYARDLLLPPSSSELKAGRPEARGSLALDCAPLLRLLGPAPGVSWTAGSPAPAEARTLSRVLKGGSVRKLRRAKQLVLELGEEAILEGCVGPPGEAAVGLLQFNLSELFSWWIRQGEGRLRIRLMPEKKASEVGREGRLSAAIRASQPRLLFQIFGTGHSSLESPTNMPSPSPDYFTWNLTWIMKDSFPFLSHRSRYGLECSFDFPCELEYSPPLHDLRNQSWSWRRIPSEEASQMDLLDGPGAERSKEMPRGSFLLLNTSADSKHTILSPWMRSSSEHCTLAVSVHRHLQPSGRYIAQLLPHNEAAREILLMPTPGKHGWTVLQGRIGRPDNPFRVALEYISSGNRSLSAVDFFALKNCSEGTSPGSKMALQSSFTCWNGTVLQLGQACDFHQDCAQGEDESQMCRKLPVGFYCNFEDGFCGWTQGTLSPHTPQWQVRTLKDARFQDHQDHALLLSTTDVPASESATVTSATFPAPIKSSPCELRMSWLIRGVLRGNVSLVLVENKTGKEQGRMVWHVAAYEGLSLWQWMVLPLLDVSDRFWLQMVAWWGQGSRAIVAFDNISISLDCYLTISGEDKILQNTAPKSRNLFERNPNKELKPGENSPRQTPIFDPTVHWLFTTCGASGPHGPTQAQCNNAYQNSNLSVEVGSEGPLKGIQIWKVPATDTYSISGYGAAGGKGGKNTMMRSHGVSVLGIFNLEKDDMLYILVGQQGEDACPSTNQLIQKVCIGENNVIEEEIRVNRSVHEWAGGGGGGGGATYVFKMKDGVPVPLIIAAGGGGRAYGAKTDTFHPERLENNSSVLGLNGNSGAAGGGGGWNDNTSLLWAGKSLQEGATGGHSCPQAMKKWGWETRGGFGGGGGGCSSGGGGGGYIGGNAASNNDPEMDGEDGVSFISPLGILYTPALKVMEGHGEVNIKHYLNCSHCEVDECHMDPESHKVICFCDHGTVLAEDGVSCIVSPTPEPHLPLSLILSVVTSALVAALVLAFSGIMIVYRRKHQELQAMQMELQSPEYKLSKLRTSTIMTDYNPNYCFAGKTSSISDLKEVPRKNITLIRGLGHGAFGEVYEGQVSGMPNDPSPLQVAVKTLPEVCSEQDELDFLMEALIISKFNHQNIVRCIGVSLQSLPRFILLELMAGGDLKSFLRETRPRPSQPSSLAMLDLLHVARDIACGCQYLEENHFIHRDIAARNCLLTCPGPGRVAKIGDFGMARDIYRASYYRKGGCAMLPVKWMPPEAFMEGIFTSKTDTWSFGVLLWEIFSLGYMPYPSKSNQEVLEFVTSGGRMDPPKNCPGPVYRIMTQCWQHQPEDRPNFAIILERIEYCTQDPDVINTALPIEYGPLVEEEEKVPVRPKDPEGVPPLLVSQQAKREEERSPAAPPPLPTTSSGKAAKKPTAAEISVRVPRGPAVEGGHVNMAFSQSNPPSELHKVHGSRNKPTSLWNPTYGSWFTEKPTKKNNPIAKKEPHDRGNLGLEGSCTVPPNVATGRLPGASLLLEPSSLTANMKEVPLFRLRHFPCGNVNYGYQQQGLPLEAATAPGAGHYEDTILKSKNSMNQPGP
partner: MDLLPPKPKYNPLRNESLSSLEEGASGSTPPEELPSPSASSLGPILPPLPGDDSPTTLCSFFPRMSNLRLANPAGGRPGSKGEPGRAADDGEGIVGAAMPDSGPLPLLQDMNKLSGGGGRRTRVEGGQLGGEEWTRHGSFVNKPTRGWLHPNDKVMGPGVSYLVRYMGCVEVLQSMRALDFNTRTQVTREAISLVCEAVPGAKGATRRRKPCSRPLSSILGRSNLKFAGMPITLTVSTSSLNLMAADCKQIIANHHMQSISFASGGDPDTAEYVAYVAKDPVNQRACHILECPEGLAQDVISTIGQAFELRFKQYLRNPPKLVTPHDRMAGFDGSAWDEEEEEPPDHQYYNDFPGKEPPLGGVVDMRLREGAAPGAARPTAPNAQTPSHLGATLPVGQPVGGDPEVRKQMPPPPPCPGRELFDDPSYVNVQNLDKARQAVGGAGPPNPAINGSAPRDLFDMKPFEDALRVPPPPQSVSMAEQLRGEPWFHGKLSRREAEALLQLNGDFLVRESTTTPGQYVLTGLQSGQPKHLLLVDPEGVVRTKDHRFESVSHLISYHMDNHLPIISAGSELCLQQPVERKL
B2: ALK tyrosine kinase receptor (Homo sapiens), Q9UM73 (parent)
chain: B1 chain
partner: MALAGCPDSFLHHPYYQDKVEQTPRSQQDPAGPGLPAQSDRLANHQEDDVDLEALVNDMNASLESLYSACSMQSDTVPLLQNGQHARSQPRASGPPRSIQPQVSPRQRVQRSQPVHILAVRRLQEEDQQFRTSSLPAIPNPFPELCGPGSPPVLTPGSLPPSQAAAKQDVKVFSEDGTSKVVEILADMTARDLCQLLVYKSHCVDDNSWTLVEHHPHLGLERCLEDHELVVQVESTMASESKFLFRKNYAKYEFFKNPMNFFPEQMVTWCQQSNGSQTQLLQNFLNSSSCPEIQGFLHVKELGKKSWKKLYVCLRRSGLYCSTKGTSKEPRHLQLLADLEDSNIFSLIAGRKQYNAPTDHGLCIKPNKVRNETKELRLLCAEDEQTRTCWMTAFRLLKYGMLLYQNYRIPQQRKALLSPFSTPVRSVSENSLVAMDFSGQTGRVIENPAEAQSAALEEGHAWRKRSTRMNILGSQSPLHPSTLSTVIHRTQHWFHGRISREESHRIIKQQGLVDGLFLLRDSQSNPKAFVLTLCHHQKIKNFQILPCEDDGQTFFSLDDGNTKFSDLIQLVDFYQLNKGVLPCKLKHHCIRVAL
B3: ALK tyrosine kinase receptor (Homo sapiens), Q9UM73 (parent)
chain: B1 chain
partner: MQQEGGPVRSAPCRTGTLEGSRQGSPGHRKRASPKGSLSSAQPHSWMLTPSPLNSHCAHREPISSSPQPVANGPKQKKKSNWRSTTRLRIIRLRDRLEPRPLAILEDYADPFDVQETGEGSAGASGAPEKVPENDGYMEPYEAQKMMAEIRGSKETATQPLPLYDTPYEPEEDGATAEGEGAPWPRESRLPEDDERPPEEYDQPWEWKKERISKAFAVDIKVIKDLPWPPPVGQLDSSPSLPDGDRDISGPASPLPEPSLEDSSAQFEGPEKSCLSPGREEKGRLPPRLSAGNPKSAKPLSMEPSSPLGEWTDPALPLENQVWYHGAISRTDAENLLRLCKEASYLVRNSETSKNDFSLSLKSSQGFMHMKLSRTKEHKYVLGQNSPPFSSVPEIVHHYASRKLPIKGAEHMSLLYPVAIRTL
B4: ALK tyrosine kinase receptor (Homo sapiens), Q9UM73 (parent)
chain: B1 chain

Variants of: B1
Conditions: with shc1_human SHC1, P29353

effect of a mutation on the interaction	Variant
increasing interaction strength	F1245C
increasing interaction strength	L1196M

Variants of: B2
Conditions: with grb10_human GRB10, Q13322

effect of a mutation on the interaction	Variant
decreasing interaction strength	I1250T
increasing interaction strength	L1196M
increasing interaction strength	F1245C

Variants of: B3
Conditions: with shf_human SHF

effect of a mutation on the interaction	Variant
decreasing interaction strength	I1250T
increasing interaction strength	F1245C
increasing interaction strength	L1196M

Variants of: B4
Conditions: with abl1_human ABL1, P00519
Sequence of abl1_human ABL1, P00519 (P00519 whole entry): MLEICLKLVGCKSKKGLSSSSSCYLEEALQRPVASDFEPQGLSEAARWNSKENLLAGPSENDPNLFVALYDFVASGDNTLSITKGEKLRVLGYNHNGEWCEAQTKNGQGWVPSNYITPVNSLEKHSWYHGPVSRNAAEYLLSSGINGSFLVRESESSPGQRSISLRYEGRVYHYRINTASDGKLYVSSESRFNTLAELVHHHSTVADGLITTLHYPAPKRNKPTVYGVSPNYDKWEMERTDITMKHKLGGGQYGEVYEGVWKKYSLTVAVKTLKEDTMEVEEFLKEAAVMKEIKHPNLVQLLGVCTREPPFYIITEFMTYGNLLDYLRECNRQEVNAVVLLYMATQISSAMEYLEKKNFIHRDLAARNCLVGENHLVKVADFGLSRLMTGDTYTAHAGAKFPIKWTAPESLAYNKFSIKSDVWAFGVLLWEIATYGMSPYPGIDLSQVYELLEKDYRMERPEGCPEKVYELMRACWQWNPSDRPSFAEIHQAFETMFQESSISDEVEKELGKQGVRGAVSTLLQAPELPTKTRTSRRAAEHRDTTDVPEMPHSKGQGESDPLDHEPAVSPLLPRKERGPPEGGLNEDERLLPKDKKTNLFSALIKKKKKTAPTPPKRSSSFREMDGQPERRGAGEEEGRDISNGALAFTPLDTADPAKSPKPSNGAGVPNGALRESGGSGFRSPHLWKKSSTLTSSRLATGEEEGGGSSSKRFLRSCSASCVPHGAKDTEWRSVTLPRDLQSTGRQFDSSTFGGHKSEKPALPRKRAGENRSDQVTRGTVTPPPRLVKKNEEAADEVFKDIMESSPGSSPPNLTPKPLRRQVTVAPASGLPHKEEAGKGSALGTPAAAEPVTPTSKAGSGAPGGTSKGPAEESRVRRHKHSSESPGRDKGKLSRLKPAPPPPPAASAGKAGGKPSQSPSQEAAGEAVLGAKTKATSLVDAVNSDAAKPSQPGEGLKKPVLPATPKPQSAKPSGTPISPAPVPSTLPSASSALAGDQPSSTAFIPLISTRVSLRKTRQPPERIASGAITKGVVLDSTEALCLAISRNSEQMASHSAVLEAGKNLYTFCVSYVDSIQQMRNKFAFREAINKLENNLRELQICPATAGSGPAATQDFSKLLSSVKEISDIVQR

effect of a mutation on the interaction	Variant
decreasing interaction strength	I1250T

Variants of: B4
Conditions: with frk_human FRK

effect of a mutation on the interaction	Variant
decreasing interaction strength	I1250T

Variants of: B4
Conditions: with sh24b_human SH2D4B

effect of a mutation on the interaction	Variant
decreasing interaction strength	I1250T

Variants of: B4
Conditions: with srms_human SRMS

effect of a mutation on the interaction	Variant
decreasing interaction strength	I1250T

Variants of: B4
Conditions: with sta5b_human STAT5B

effect of a mutation on the interaction	Variant
decreasing interaction strength	I1250T

Variants of: B4
Conditions: with syk_human KARS1, Q15046
Sequence of syk_human KARS1, Q15046 (Q15046 whole entry, looked up): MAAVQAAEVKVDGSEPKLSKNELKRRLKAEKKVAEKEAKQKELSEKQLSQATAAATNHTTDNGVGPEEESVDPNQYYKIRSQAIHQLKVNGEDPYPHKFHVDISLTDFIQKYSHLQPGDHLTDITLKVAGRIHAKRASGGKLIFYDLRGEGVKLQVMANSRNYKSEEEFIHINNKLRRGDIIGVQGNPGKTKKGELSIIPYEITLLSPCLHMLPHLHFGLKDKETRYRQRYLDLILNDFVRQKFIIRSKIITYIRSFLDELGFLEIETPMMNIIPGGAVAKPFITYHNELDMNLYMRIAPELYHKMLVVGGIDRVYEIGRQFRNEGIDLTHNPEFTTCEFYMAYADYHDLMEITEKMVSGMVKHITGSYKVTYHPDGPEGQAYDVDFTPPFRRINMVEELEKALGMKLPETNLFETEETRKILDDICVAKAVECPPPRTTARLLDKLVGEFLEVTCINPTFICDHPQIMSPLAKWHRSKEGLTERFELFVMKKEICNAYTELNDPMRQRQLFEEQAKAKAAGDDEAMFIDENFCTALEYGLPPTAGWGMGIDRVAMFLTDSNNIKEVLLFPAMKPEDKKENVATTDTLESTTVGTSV

effect of a mutation on the interaction	Variant
decreasing interaction strength	I1250T

Variants of: B4
Conditions: with crk_human CRK

effect of a mutation on the interaction	Variant
decreasing interaction strength	I1250T

Variants of: B4
Conditions: with fgr_human FGR

effect of a mutation on the interaction	Variant
decreasing interaction strength	I1250T

Variants of: B4
Conditions: with grb14_human GRB14, Q14449
Sequence of grb14_human GRB14, Q14449 (Q14449 whole entry): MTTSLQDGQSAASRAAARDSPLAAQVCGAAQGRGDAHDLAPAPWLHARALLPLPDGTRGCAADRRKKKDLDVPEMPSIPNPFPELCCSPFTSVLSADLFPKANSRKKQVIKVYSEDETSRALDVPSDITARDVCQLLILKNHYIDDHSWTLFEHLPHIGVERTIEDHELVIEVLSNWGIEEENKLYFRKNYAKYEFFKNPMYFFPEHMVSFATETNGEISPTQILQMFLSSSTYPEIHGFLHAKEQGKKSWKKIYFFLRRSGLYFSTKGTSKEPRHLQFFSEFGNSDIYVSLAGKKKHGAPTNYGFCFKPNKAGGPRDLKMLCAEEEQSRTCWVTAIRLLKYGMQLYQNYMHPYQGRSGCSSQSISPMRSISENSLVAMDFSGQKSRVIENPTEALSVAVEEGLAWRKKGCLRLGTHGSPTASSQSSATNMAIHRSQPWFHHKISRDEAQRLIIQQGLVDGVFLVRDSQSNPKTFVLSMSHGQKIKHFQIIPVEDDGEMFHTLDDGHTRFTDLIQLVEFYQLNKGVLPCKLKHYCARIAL

effect of a mutation on the interaction	Variant
decreasing interaction strength	I1250T

Variants of: B4
Conditions: with hck_human HCK

effect of a mutation on the interaction	Variant
decreasing interaction strength	I1250T

Variants of: B4
Conditions: with lyn_human LYN

effect of a mutation on the interaction	Variant
decreasing interaction strength	I1250T

Variants of: B4
Conditions: with nck2_human NCK2, O43639
Sequence of nck2_human NCK2, O43639 (O43639 whole entry): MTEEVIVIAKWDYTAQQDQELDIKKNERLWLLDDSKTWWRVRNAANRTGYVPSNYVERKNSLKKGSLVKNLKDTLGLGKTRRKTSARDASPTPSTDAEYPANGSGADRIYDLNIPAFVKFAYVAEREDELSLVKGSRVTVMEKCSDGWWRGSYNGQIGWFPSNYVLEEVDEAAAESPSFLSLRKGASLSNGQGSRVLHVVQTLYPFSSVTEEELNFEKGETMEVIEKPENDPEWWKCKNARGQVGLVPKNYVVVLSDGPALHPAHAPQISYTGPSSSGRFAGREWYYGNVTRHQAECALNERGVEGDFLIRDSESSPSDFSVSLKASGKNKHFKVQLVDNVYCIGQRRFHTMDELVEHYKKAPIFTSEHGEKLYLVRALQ

effect of a mutation on the interaction	Variant
decreasing interaction strength	I1250T

Variants of: B4
Conditions: with sh2b1_human SH2B1, Q9NRF2

effect of a mutation on the interaction	Variant
decreasing interaction strength	I1250T

Variants of: B4
Conditions: with shb_human SHB

effect of a mutation on the interaction	Variant
decreasing interaction strength	I1250T

Variants of: B4
Conditions: with socs3_human SOCS3, O14543
Sequence of socs3_human SOCS3, O14543 (O14543 whole entry): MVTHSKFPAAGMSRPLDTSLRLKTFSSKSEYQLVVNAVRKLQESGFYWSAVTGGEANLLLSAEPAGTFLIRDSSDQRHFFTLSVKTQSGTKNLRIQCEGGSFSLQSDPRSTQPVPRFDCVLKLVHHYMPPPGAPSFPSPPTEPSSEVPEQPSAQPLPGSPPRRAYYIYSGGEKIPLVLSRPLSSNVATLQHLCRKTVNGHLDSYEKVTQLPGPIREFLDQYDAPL

effect of a mutation on the interaction	Variant
decreasing interaction strength	I1250T

Variants of: B4
Conditions: with stat2_human STAT2, P52630
Sequence of stat2_human STAT2, P52630 (P52630 whole entry): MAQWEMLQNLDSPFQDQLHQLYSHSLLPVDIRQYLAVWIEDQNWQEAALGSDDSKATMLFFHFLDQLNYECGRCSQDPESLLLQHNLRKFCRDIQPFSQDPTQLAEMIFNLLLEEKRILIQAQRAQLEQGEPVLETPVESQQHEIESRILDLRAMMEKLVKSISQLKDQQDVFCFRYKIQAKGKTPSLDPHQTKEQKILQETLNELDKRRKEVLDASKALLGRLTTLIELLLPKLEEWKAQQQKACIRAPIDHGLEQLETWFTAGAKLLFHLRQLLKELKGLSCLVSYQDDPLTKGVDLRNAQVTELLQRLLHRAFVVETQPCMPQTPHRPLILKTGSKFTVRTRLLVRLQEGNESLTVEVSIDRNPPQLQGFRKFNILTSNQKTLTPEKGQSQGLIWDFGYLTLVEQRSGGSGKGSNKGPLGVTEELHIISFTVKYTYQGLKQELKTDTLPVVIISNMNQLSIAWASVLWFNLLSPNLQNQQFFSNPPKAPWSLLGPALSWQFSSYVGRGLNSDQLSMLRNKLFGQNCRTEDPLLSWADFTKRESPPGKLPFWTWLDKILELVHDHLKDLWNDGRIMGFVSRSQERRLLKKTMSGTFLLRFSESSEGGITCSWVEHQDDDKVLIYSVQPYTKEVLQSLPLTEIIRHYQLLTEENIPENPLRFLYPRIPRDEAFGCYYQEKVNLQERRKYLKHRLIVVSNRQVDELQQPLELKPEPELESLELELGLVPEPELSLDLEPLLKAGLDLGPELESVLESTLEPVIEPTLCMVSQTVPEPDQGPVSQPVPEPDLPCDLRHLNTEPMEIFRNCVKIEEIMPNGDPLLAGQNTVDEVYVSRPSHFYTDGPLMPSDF

effect of a mutation on the interaction	Variant
decreasing interaction strength	I1250T

Variants of: B4
Conditions: with zap70_human ZAP70, P43403
Sequence of zap70_human ZAP70, P43403 (P43403 whole entry): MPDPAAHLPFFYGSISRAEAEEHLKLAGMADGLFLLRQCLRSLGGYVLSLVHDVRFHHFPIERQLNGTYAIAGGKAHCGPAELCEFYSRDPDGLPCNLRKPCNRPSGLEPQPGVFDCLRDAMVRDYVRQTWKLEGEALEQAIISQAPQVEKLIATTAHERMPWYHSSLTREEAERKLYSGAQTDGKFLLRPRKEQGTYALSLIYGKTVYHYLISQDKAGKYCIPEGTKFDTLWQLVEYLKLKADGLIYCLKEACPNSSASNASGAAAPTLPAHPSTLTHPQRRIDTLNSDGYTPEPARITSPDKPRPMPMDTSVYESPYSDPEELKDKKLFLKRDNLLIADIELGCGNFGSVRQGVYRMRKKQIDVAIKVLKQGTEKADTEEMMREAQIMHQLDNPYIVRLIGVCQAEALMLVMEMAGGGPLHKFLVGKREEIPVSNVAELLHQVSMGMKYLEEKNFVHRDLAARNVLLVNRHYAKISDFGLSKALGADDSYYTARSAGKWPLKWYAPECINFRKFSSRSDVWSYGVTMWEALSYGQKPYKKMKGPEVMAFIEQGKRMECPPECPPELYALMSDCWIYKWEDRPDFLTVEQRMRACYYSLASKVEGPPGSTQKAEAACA

effect of a mutation on the interaction	Variant
decreasing interaction strength	I1250T

Variants of: B4
Conditions: with rack1_human RACK1, P63244

effect of a mutation on the interaction	Variant
decreasing interaction strength	I1250T
